Measurements: US8399414B2, “Analgesics” (NRL Pharma, Inc., priority 2002, dated 2013)

Columns and labels:
male Wistar rats [1] = experiment: ethanol and restriction stress gastric ulcer (Example 4); type: in vivo, rat; conditions: 1% bovine lactoferrin in feed for 8 weeks; relative to control group
Experimental: Sixteen male Wistar rats (6 weeks of age) were randomly divided into two groups, and the rats in one group (n=8) were fed standard feed powder for rodent animals (CLEA JAPAN, INC., CE-2) while those in the other group (n=8) fed CE-2 with 1% bovine lactoferrin added thereto for 8 weeks. Eight weeks later, the rats were deprived of food for one night, administered orally and forcibly 5 ml/kg weight of 50% ethanol, and subsequently inflicted with restriction stress for 2 hours. Two 2 hours later, the stomach of each rat was excised and “number of hemorrhagic spots”, “area of hemorrhage”, “number of ulcers”, “number of large ulcers” and “areas of ulcers” on the gastric mucosa were measured.

male Wistar rats [2] = experiment: formalin test, oral administration in feed for 4 weeks (Example 2); type: in vivo, rat; conditions: 1% bovine lactoferrin in feed for 4 weeks
Experimental: (§1) Formalin test is a typical pain sensation stimulating test. It is a method for determining an analgesic effect of drugs in which 50 μl of 2% formalin is injected into a foot pad of each experimental rat and the foot-lifting and foot-licking behavior of the rats is observed.
Fourteen male Wistar rats (6 weeks of age) were randomly divided into two groups, and the rats in one group were fed standard feed powder for rodent animals (Clea Japan, Inc., CE-2) while those in the other group fed CE-2 with 1% bovine lactoferrin added thereto for 4 weeks. Four weeks later, formalin solution was injected into the foot pad of each rat, and the foot-lifting and foot-licking behavior of each rat due to the pain sensation stimulation was measured for one hour (FIGS. 3 and 4).

[3] = test system: adjuvant arthritis rat model; type: in vivo; conditions: LF 100 mg/kg oral sid or bid, Dex 1 mg/kg i.p. sid
Experimental: The preventive/therapeutic effects against arthritis of orally administered lactoferrin (LF) and the mechanism of the action were examined using an adjuvant arthritis rat model as an animal model with rheumatoid arthritis.
Evaluation of the above described effects was performed by measuring the change in volume of foot due to swelling, Flexion test (pain in joints caused in flexion and extension test), and the production of cytokine by the stimulation of lipopolysaccharide.
Adjuvant was injected subcutaneously into the sole of the right hind leg of each rat, and the volume of the feet was measured once a day to obtain the swelling rate of the feet of both hind legs. The test substance was suspended in 0.5% CMC and administered once or twice a day for 18 consecutive days starting from the first dose 3 hours before adjuvant treatment (day 0). On 4th and 10th days after treating with adjuvant, the swollen tarsal joint of each rat was extended 10 times and the number of times each rat screamed due to the stimulation of pain sensation caused by flexing and extending its tarsal joint was measured.

pepsin = type: in vitro ADME
From the text: (§2) Preferably the composition of this invention, as a composition for an oral formulation, is made into an enteric-coated dosage form. The inventors of this invention hypothesize that there exists a structure, which can be referred to as a lactoferrin sensor, on the mucosa of the intestinal tract, as described in detail in International Patent Application, PCT/JP01/10212 (WO02/41912).

male Wistar rats [4] = experiment: formalin test, intraperitoneal administration (Example 1); type: in vivo, rat
Experimental: as §1
Ten male Wistar rats (6 weeks of age) were randomly divided into two groups, and one hour before injecting formalin, the rats in the control group were given saline solution (1 ml/kg) and those in the lactoferrin group were given bovine lactoferrin dissolved in saline solution (100 ml/kg, Tatua Milk Industry Co., Ltd., purity: 87%) by intraperitoneal injection. After one hour, formalin solution was injected into the foot pad of each rat, and the foot-lifting and foot-licking behavior of each rat due to the stimulation of the pain sensation was measured for one hour (FIGS. 1 and 2).

rats [5] = experiment: single dose acute toxicity study (GLP), oral; type: in vivo; conditions: maximum dose of 5 g/kg
From the text: (§3) In toxicity studies in beagles and rats carried out by the inventors in accordance with GLP, lactofferin extracted from milk (manufactured by Tatua Milk Industry Co., Ltd., New Zealand, purity: 87%) was non-toxic after oral administration at physical limit doses. […] Accordingly, lactoferrin is probably non-toxic after oral administration and has almost ideal characteristics as a therapy for cancer. It is likely that lactoferrin defends opportunistic infections frequently occurring in immunocompromised hosts such as patients with cancer, prevents carcinogenesis, inhibits the growth of cancer, prevents metastasis, and destructs a metastatic lesion. Further, it is probably highly safe when administered to patients declining in immunopotency, such as aged patients.

beagles [6] = experiment: single dose acute toxicity study (GLP), oral; type: in vivo; conditions: maximum dose of 5 g/kg
From the text: as §3

rodent animals [7] = experiment: acetic acid rising test; type: in vivo; conditions: administration before test
From the text: (§4) The inventors carried out, using rodent animals, animal tests related to pain: (1) hot plate test, (2) formalin test and (3) acetic acid rising test to examine the influences of lactoferrin administration on the animals' sensation of pain.

protease = experiment: resistance of lactoferrin to protease; type: in vitro ADME
From the text: as §2

[8] = test system: adjuvant arthritis rat model; experiment: adjuvant arthritis rat model, treatment in chronic phase (Example 6); type: in vivo
Experimental: Subsequently after Example 5, lactoferrin (100 mg/kg) was orally administered for 7 consecutive days starting from day 19 after the adjuvant treatment, when the adjuvant treated rats were in the chronic phase of inflammation.

rodent animals [9] = experiment: hot plate test; type: in vivo; conditions: administration before test
From the text: as §4

male Wistar rats [10] = experiment: formalin test, intrathecal administration, comparison with morphine (Example 12); type: in vivo; conditions: 30 minutes before formalin, bLF 0.1 to 100 μg/rat, rhLF 100 μg/rat, morphine 10 μg/rat, FIGS. 15
Experimental: Groups consisting of male Wistar rats 6 weeks of age (n=6 to 8) were intrathecally administered 0.1 to 100 μg/rat of bovine lactoferrin (bLF), 100 μg/rat of recombinant human lactoferrin (rhLF) or 10 μg/rat of morphine (Mor) 30 minutes before formalin was injected into their foot pads. The results are shown in FIGS. 15: the number of the foot-lifting times in the phase 1 pain (left graph) and the number of the foot-lifting times in the phase 2 pain (right graph).

male Wistar rats [11] = experiment: formalin test, comparison with diclofenac (Example 3); type: in vivo, rat; conditions: i.p. 30 minutes before formalin
Experimental: Male Wistar rats 6 weeks of age were used. The rats in one group were given bovine lactoferrin and those in another group were given a control drug, diclofenac, by intraperitoneal administration 30 minutes before injecting formalin into their foot pads. Their responses to pain are shown in FIG. 5: the phase 1 pain (left) and the phase 2 pain (right).
Lactoferrin and diclofenac were administered intraperitoneally 30 minutes before formalin injection both in the control group (n=4) and the diclofenac group (n=5). The pain inhibiting effect of diclofenac disappeared about 50 minutes after formalin injection, whereas the pain inhibiting effect of lactoferrin lasted long and even 60 minutes after formalin injection.

TNF-α production = experiment: LPS-stimulated cytokine production in rats with adjuvant arthritis, ELISA (Example 8); type: in vivo, rat; conditions: LPS 1 mg/kg i.p., blood 3 hours later
Experimental: (§5) It is known that in adjuvant arthritis models, the production of cytokines due to the LPS stimulation increases considerably, compared with normal animals, because the reactivity of their immune system increases due to chronic inflammation.
(§6) One mg/kg of LPS was administered intraperitoneally to rats with adjuvant arthritis to stimulate the production of cytokines. Three hours after the LPS administration, the blood was collected from each rat and the quantities of cytokines were measure by ELISA. The groups to be administered a single dose of lactoferrin (groups B and C) were given orally 0.5% CMC once daily until the experiment day to allow the experiment conditions to match those of the group to be administered lactoferrin for 19 consecutive days. The group to be administered lactoferrin for 19 consecutive days (group E) was administered orally lactoferrin once daily from the very day when treated with adjuvant. The design of the experiment is shown in Table 2 and the results in FIG. 14.

IL-10 production = experiment: as above; type: in vivo, rat; conditions: LPS 1 mg/kg i.p., blood 3 hours later
Experimental: as §5, §6

rats [12] = experiment: subacute toxicity study, dosing period of 3 months, oral; type: in vivo; conditions: maximum dose of 2 g/kg
From the text: as §3

beagles [13] = experiment: as above; type: in vivo; conditions: maximum dose of 2 g/kg
From the text: as §3

[14] = test system: adjuvant arthritis models; experiment: adjuvant arthritis, Flexion test after a single oral dose (Example 7); type: in vivo, rat
Experimental: On day 25 after the adjuvant treatment, the rats were divided into 6 groups and administered once BSA (bovine serum albumin) or LF (lactoferrin), and after 3 hours, the pain index was measured for each group by Flexion test in the manner as in Example 5. Thirty minutes before Flexion test, saline solution, morphine or naloxone was administered subcutaneously.

male Wistar rats [15] = experiment: formalin test, enhancement of analgesic effect of morphine (Example 13); type: in vivo; conditions: 10 ng/rat bovine lactoferrin with 1 to 10,000 ng/rat morphine; several 10- to 100-fold or more; FIG. 16
Experimental: The lactoferrin's effect of enhancing the analgesic effect of morphine was examined by administering 1 to 10,000 ng/rat of morphine concurrently with 10 ng/rat of bovine lactoferrin (▪) or alone (●) in the same manner as in Example 12. The results are shown in FIG. 16: the number of the foot-lifting times in the phase 1 pain (left graph) and the number of foot-lifting time in the phase 2 pain (right graph).

[16] = lactoferrin orally for 19 consecutive days
[17] = single oral dose of lactoferrin

B1: lactoferrin (protein, UniProt P24627 20-708, looked up)
Lactotransferrin: APRKNVRWCTISQPEWFKCRRWQWRMKKLGAPSITCVRRAFALECIRAIAEKKADAVTLDGGMVFEAGRDPYKLRPVAAEIYGTKESPQTHYYAVAVVKKGSNFQLDQLQGRKSCHTGLGRSAGWIIPMGILRPYLSWTESLEPLQGAVAKFFSASCVPCIDRQAYPNLCQLCKGEGENQCACSSREPYFGYSGAFKCLQDGAGDVAFVKETTVFENLPEKADRDQYELLCLNNSRAPVDAFKECHLAQVPSHAVVARSVDGKEDLIWKLLSKAQEKFGKNKSRSFQLFGSPPGQRDLLFKDSALGFLRIPSKVDSALYLGSRYLTTLKNLRETAEEVKARYTRVVWCAVGPEEQKKCQQWSQQSGQNVTCATASTTDDCIVLVLKGEADALNLDGGYIYTAGKCGLVPVLAENRKSSKHSSLDCVLRPTEGYLAVAVVKKANEGLTWNSLKDKKSCHTAVDRTAGWNIPMGLIVNQTGSCAFDEFFSQSCAPGADPKSRLCALCAGDDQGLDKCVPNSKEKYYGYTGAFRCLAEDVGDVAFVKNDTVWENTNGESTADWAKNLNREDFRLLCLDGTRKPVTEAQSCHLAVAPNHAVVSRSDRAAHVKQVLLHQQALFGKNGKNCPDKFCLFKSETKNLLFNDNTECLAKLGGRPTYEEYLGTEYVTAIANLKKCSTSPLLEACAFLTR
notes: bovine lactoferrin extracted from milk (Tatua Milk Industry Co., Ltd., purity 87%)
Male Wistar rats [1]
  area of the hemorrhage per rat, decreased to: 79%
  area of the ulcers, decreased to: about 30%
  number of the large ulcers, decreased to: 50%
  number of the ulcers, decreased to: 50%
  number, per rat, of hemorrhagic spots on the gastric mucosa, decreased to: 87%
Male Wistar rats [2]
  foot-licking behavior: significantly decreased
Male Wistar rats [2]; FIG. 4
  phase 2 pain sensation stimulation induced by formalin: significantly inhibiting
Male Wistar rats [2]; vs control P<0.0001, FIG. 3
  stimulation of the pain sensation (foot-lifting): weakened the sensitivity to pain
[3]; 18 consecutive days from day 0, FIG. 10
  swelling rate of the feet: significantly lower
[3]; days 4 and 10 after adjuvant, FIG. 11
  Flexion test (screams, pain index): neither screamed nor showed pain sensation reaction
pepsin
  sensitivity to pepsin: highly sensitive
Male Wistar rats [4]; i.p. 100 ml/kg one hour before formalin, measured for one hour, vs control P<0.0001, FIG. 1
  foot-lifting behavior: significantly decreased
Male Wistar rats [4]; i.p. one hour before formalin, vs control, FIG. 2
  number of times rats lifted their feet within 50 minutes after formalin injection (phase 2 pain): more significantly decreased
Male Wistar rats [4]; i.p., higher doses, data not shown
  foot-licking behavior: significantly decreased
Rats [5]
  abnormal findings, single dose acute toxicity: no abnormal findings were observed
Beagles [6]
  abnormal findings, single dose acute toxicity: no abnormal findings were observed
Rodent animals [7]
  sensation of pain against the stimulation: weakened sensation of pain
protease
  resistance to protease: significantly resistive
[8]; 7 consecutive days from day 19, LF vs control from day 1, Dex vs lactoferrin groups, FIG. 12C
  pain index in Flexion test: significantly lower
[8]; 7 consecutive days from day 19 after adjuvant, LF 100 mg/kg oral (day 7 vs control), Dex 1 mg/kg (from day 1)
  swelling of feet: significantly lower
Rodent animals [9]
  sensation of pain against the stimulation: weakened sensation of pain
Male Wistar rats [10]
  phase 1 pain (number of foot-lifting times): inhibits
  phase 2 pain (number of foot-lifting times): inhibits
Male Wistar rats [11]; FIG. 5
  inhibition of phase 1 pain: inhibited dose-dependently
  inhibition of phase 2 pain: inhibited dose-dependently
Male Wistar rats [11]; FIGS. 7 and 8
  duration of pain inhibiting effect after formalin injection: ≥ 60 min
TNF-α production; [16]
  TNF-α production: significant inhibition
TNF-α production; [17]
  TNF-α production: significant inhibition
IL-10 production; [16]
  IL-10 production: increase
IL-10 production; [17]
  IL-10 production: increase
Rats [12]
  abnormal findings, subacute toxicity: no abnormal findings were observed
Beagles [13]
  abnormal findings, subacute toxicity: no abnormal findings were observed
[14]; LF 100 mg/kg oral plus naloxone 3 mg/kg s.c. 30 mins before Flexion test
  analgesic effect of lactoferrin with naloxone: completely inhibited by naloxone
[14]; single oral dose 10 to 100 mg/kg, 3 hrs before test, day 25 after adjuvant, FIG. 13
  sensitivity to pain in the joints (Flexion test): inhibited the sensitivity to pain in the joints dose-dependently
Male Wistar rats [15]
  enhancement of the analgesic effect of morphine, phase 1 pain: 10- to 100 fold
  enhancement of the analgesic effect of morphine, phase 2 pain: 10- to 100 fold
